According to patent publication US20180335433A1, “COMPOSITIONS TARGETING PKC-THETA AND USES AND METHODS OF TREATING PKC-THETA PATHOLOGIES, ADVERSE IMMUNE RESPONSES AND DISEASES” (La Jolla Institute for Allergy and Immunology, priority 2011, published 2018):

Assays:
CD28 = target: T1, CD28 (Mus musculus, UniProt P31041); assay: Co-immunoprecipitation of Myc-tagged V3 with CD28 in PKCθ−/− primary CD4+ T cells; type: binding; conditions: Myc-tagged V3 alone, retrovirus, CD3+CD28 mAbs 5 min
T1 construct: PKCθ^−/− primary CD4^+ T cells were infected with a retrovirus expressing a Myc-tagged V3 alone; endogenous in cells; host or cells: primary CD4+ T cells of PKCθ-/- mice, retrovirally transduced only with Myc-tagged V3
T1 sequence (P31041 20-218): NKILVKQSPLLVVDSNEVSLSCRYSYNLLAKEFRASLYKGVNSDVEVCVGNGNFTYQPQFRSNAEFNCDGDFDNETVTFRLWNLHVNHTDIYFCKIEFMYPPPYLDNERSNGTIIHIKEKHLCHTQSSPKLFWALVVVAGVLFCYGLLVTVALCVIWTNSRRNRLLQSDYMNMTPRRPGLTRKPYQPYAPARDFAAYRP
T1 sequence (P06240 2-509 partner): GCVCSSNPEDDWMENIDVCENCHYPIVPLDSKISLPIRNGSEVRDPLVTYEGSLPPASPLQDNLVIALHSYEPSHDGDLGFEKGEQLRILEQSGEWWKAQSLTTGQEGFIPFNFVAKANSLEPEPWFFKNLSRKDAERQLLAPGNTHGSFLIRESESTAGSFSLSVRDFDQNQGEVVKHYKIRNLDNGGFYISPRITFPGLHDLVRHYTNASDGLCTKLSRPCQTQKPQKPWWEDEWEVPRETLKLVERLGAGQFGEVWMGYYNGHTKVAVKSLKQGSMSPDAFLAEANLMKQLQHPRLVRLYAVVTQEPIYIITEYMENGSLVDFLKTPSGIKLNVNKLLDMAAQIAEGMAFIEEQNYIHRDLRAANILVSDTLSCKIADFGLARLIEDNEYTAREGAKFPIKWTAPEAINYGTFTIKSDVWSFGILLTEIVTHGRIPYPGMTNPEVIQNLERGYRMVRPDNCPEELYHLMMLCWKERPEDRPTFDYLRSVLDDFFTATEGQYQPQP
Experimental: (FIG. 2A) Schematic representation of PKCθ mutants. (FIG. 2B) Jurkat E6.1 cells transfected with the indicated PKCθ or PKCδ vectors were stimulated with anti-CD3/CD28 mAbs for 5 min. (FIG. 2C-2E) PKC CD4^+ T cells were infected with retrovirus expressing empty pMIG vector, WT PKCθ, or PKCθ−ΔV3 (FIG. 2C); WT PKCθ, PKCθ/δV3, or WT PKCδ (FIG. 2D); empty pMIG-vector or Myc-tagged V3 of PKCθ (FIG. 2E). Cells were harvested and restimulated with CD3+CD28 mAbs for 5 min. Cell lysates were prepared, immunoprecipitated with anti-CD28 mAb, resolved by SDS-PAGE, and immunoblotted with the indicated Abs. (FIG. 2F) Jurkat T cells cotransfected with Myc-tagged PKCθ−V3 plus CFP-tagged CD28 were mixed with SEE-pulsed Raji B cells at a 1:1 ratio. Conjugates were fixed and stained with a rabbit anti-Myc Ab plus a secondary Alexa 488-coupled antibody. Data shown is from four studies.
Retrovirally transduced CD4^+ T cells were stimulated with anti-CD3 and anti-CD28 mAbs for 5 min. Cell lysis in 1% digitonin lysis buffer, immunoprecipitation and Western blotting were carried out as described (Yokosuka, T. et al. Immunity 29, 589-601 (2008)).
To determine whether the V3 domain is sufficient for this interaction, PKCθ^−/− primary CD4^+ T cells were infected with a retrovirus expressing a Myc-tagged V3 alone. […]

[1] = test system: Th1-mediated lung inflammation; assay: Th1-mediated Ova-induced airway inflammation after adoptive transfer of transduced Th1 effector cells; type: in vivo, mouse; conditions: transferred Th1 effector cells
Excerpt: (FIG. 7A-7D) OT-II CD4^+ T cells stimulated with anti-CD3 plus anti-CD28 mAbs and differentiated in vitro under Th2 (FIG. 7A-7C) or Th1 (FIG. 7D, 7E)-polarizing conditions were retrovitrally transduced with the same PKCθ V3 vectors as in FIG. 6. Sorted GFP^+ populations were adoptively transferred into naïve B6 mice, which were challenged with aerosolized Ova for 3 consecutive days. BAL fluid were obtained 1 d post-challenge and analyzed for total mononuclear cell infiltration (FIG. 7A, 7D) and cytokine expression using IL-4 (FIG. 7B), IL-5 (FIG. 7C) and IFN-γ (FIG. 7E) ELISA.
CD4^+ T cells from OT-II B6 mice were isolated and cultured with plate-bound anti-CD3 (5 μg/ml), soluble anti-CD28 (2.5 μg/ml) and IL-2 (100 U/ml) under Th1 or Th2 polarizing conditions. The cells were retrovirally infected on days 2-4 and cultured for an additional 3 days. GFP^+ cells were sorted, and 1×10^6 cells were injected intravenously into naïve WT B6 mice. One day later, mice received aerosolized Ova (5 mg/ml in 20 ml PBS) for 30 min, once a day for 3 consecutive days, using ultrasonic nebulization. Mice were sacrificed 24 h after the last challenge and assessed for lung inflammation. Collection of BAL fluid and determination of cytokine levels were carried out as described (Salek-Ardakani, S. et al. J Immunol 173, 6440-6447 (2004)).

endogenous PKCθ = assay: IS localization in OT-II CD4+ T cells conjugated with Ova-loaded APCs (confocal); type: cell-based, mouse; conditions: OT-II TCR-Tg CD4+ T cells
Experimental: (FIG. 6A) OT-II CD4^+ T cells were infected with retrovirus expressing Myc-tagged V3 domain, V3 mutated at P330/1/4/6A (V3-4PA), or PR motif-deleted V3 (V3-ΔPR). Infected cells (green) were harvested, stimulated, and fixed. Conjugates were stained with anti-Myc plus a secondary Alexa 555-coupled antibody (orange), and anti-PKCθ plus a secondary Alexa 647-coupled antibody (red). Cells were analyzed as in FIG. 1A. (FIG. 6B) Quantitative analysis of the results shown in (FIG. 6A) from 30-50 T-APC conjugates. ** p<0.05. (FIG. 6C) MCC-specific T hybridoma cells were cotransfected with indicated vector, together with RE/AP-Luc and β-Gal reporter plasmids. Cells were stimulated and analyzed as in FIG. 1C. (FIG. 6D) Naïve CD4^+ T cells from B6 mice stimulated with anti-CD3 plus anti-CD28 mAbs and differentiated in vitro under Th1-, Th2- or Th17-polarizing conditions were retrovirally transduced with empty pMIG vector, or with the indicated PKCθ V3 vectors. Cytokine-producing cells were analyzed by intracellular staining 8 h after restimulation. Right panels represent cumulative data showing percentage of cytokine-producing cells by intracellular staining. (FIG. 6E) MCC-specific T hybridoma cells were cotransfected with the indicated plasmids, together with NFAT luciferase reporter and a β-Gal reporter plasmid. Cells were incubated with fibroblasts that express I-E^K and B7-1 in the absence or presence of MCC peptide for 6 hrs. Normalized luciferase activity was determined in triplicates.
Full-length human PKCθ and its derivatives were cloned as a GFP fusion protein in the pMX retroviral vector. Retroviral supernatants were used to infect preactivated CD4^+ T cells from PKCθ^−/− or WT OT-II mice. Transduced cells were rested for an additional three days. On the day of experiment, APC were prepared from WT B6 splenocytes that were depleted of CD4^+ T cells using anti-CD4 (L3T4) mAb-coated beads. T-depleted APC were stained with 20 μM of cell tracker blue (CMAC) and then pulsed with 5 μM Ova peptide, respectively, for 30 min at 37° C. T cell-APC conjugation was carried out at 37° C. for 20 min before fixation with 4% paraformaldehyde and permeabilization with PBS supplemented with 1% BSA and 0.1% Triton X-100. […] Immunofluorescene images were captured using a Marianas digital fluorescence-microscopy system (Intelligent Imaging Innovations) as described (Becart, S. et al. Immunity 29, 704-719 (2008)).
Given the critical role of the PKCθ V3 domain in the enzyme's CD28 association, IS localization, and activation of downstream targets, ectopic expression of the isolated V3 domain was analyzed for interference with the localization and function of PKCθ in stimulated T cells. […]

B1: V3 domain: amino acid 282-379 of human PKCθ with N-terminal Myc tag, expressed from pMIG retroviral vector (protein)
chain: GINQKLMAEALAMIESTQQARCLRDTEQIFREGPVEIGLPCSIKNEARPPCLPTPGKREPQGISWESPLDEVDKMCHLPEPELNKERPSLQIKLKIED
modifications: left off: small tags and cut ends
notes: amino acid 282-379 of human PKCθ with N-terminal Myc tag, expressed from pMIG retroviral vector
coimmunoprecipitation with CD28 (CD28): coimmunoprecipitated with CD28 | inhibition of the Th1 lung inflammation response (leukocyte infiltration, IFN-γ in BAL fluid) [1]: did not inhibit | effect on IS localization of endogenous PKCθ (endogenous PKCθ): sequestered from the IS | subcellular localization of the transduced V3 protein (endogenous PKCθ): translocated to and selectively localized in the IS
